Laboratory results from publication PMC12633535 (bioRxiv, 2025).
Substitutions are numbered along the chain they refer to.

How the values were obtained:
Experiment in all cases: BLI
[1] = target: T1, β-catenin C619Y/E620K (purified, full length, untagged) (human, UniProt P35222 1-781, C619Y | E620K)
T1 sequence (looked up): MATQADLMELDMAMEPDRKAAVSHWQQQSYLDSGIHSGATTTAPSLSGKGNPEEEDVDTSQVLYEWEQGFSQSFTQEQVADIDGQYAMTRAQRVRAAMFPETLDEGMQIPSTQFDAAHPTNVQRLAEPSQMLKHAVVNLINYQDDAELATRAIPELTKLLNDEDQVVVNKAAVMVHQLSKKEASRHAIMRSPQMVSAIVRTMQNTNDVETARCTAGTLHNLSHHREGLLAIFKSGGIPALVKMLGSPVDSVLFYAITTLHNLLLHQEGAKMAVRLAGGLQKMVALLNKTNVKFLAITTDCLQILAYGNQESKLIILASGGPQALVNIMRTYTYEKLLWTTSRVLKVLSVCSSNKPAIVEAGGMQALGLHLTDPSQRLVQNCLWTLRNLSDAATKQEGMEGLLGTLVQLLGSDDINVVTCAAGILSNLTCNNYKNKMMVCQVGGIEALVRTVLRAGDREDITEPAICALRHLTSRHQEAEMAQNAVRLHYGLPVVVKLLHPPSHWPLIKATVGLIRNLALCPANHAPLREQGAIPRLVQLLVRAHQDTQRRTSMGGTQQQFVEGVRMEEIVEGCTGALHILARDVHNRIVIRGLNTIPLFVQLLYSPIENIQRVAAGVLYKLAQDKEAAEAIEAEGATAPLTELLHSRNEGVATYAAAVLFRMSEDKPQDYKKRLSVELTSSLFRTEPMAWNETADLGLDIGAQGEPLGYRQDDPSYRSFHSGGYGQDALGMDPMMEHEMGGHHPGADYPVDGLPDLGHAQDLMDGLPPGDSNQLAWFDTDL

[2] = target: T2, full-length β-catenin E462K, untagged (human, UniProt P35222 1-781, E462K)
T2 sequence (looked up): T1 sequence (looked up) with E462K, Y619C, K620E

[3] = target: T3, full-length β-catenin, untagged, wild type (human, UniProt P35222 1-781)
T3 sequence (looked up): T1 sequence (looked up) with Y619C, K620E

- binding result [1]: binds
- binding result [2]: binds
- binding result [3]: binds
B1: GST-tagged TCF4 fragment (a.a. 1–53) (domain or fragment, UniProt Q9NQB0 1-53, looked up)
chain: MPQLNGGGGDDLGANDELISFKDEGEQEEKSSENSSAERDLADVKSSLVNESE
